The results in this text go back to the DeepSol protein solubility set.

This data set in a line: soluble on expression in E. coli; label from the status in PepcDB or PDB records.
For “ESVLTQPPSVSGAPGQRVTISCTGSSSNIGAGYDVHWYQQLPGTAPKLLISGNSNRPSGVPDRFSGSKSGTSASLAITGLQAEDEADYYCQSYDSSLSGSVFGGGTKLTVLGQPKAAPSVTLFPPSSEELQANKATLVCLISDFYPGAVTVAWKADSSPVKAGVETTTPSKQSNNKYAASSYLSLTPEQWKSHRSYSCQVTHEGSTVEKTVAPTECS”, the “soluble on expression in E. coli” value is “soluble”. To “ESYWRSRMIDAVTSDEDKVAPVYKLEEICDLLRSSHVSIVKEFSEFILKRLDNKSPIVKQKALRLIKYAVGKSGSEFRREMQRNSVAVRNLFHYKGHPDPLKGDALNKAVRETAHETISAIFSEENG” belongs “soluble”; to “EVKDYMSQPVVLRENTTVYDAICTIFLEDVSTLFIINEDNDFVGVCSRKDLLRASMIGADIHTVPISVNMTRMPNVTYLEESELVIYAADRMIEKEIDSIPIVRKKDNQKYEVIGRISKTTIAKLLVALYKE”, “not soluble”. For the sequence “EVKLVESGGGLVKPGGSLKLSCAASGFTFSRYALSWVRQTADKRLEWVASIVSGGNTYYSGSVKGRFTISRDIARNILYLQMSSLRSEDTAMYYCARAYYGYVGLVHWGQGTLVTVSSAKTTPPSVYPLAPGSAAQTNSMVTLGCLVKGYFPEPVTVTWNSGSLSSGVHTFPAVLQSDLYTLSSSVTVPSSTWPSETVTCNVAHPASSTKVDKKIVPRDCG”, the “soluble on expression in E. coli” value is listed as “soluble”. On to “EVKLVESGGGLVLPGGSLRLSCATSGFTFTDYYMTWVRQPPGKALEWLGFIGNKANDYTTEYSASVKGRFTISRDDSQSILYLQMSTLRAEDRATYYCATVYGNYPYFDVWGAGTTVAVSSAKTTPPSVYPLAPVCGGTTGSSVTLGCLVKGYFPEPVTLTWNSGSLSSGVHTFPAVLQSGLYTLSSSVTVTSSTWPSQSITCNVAHPASSTKVDKKIEPR”, for which the “soluble on expression in E. coli” value is on record as “soluble”. To “EVMLVESGGGLVKPGGSLKLSCAASGFTFSSYTMSWVRQTPEKRLEWVATISSGGGNTYYPDSVKGRFTISRDIAKNTLYLQMSSLRSEDTALYYCTRLGDYGYAYTMDYWGQGTSVTVSSAKTTPPSVYPLAPGGGGGGGAMVTLGCLVKGYFPEPVTVTWNSGSLSSGVHTFPAVLQSDLYTLSSSVTVPSSPWPSETVTCNVAHPASSTKVDKKIVPRDC” belongs “soluble”. As for “EWALFLDIDGTLVDIAEQPHDVRVAASLPQDLARLADRLGGALALVTGRRVDWIDAHFGPHLFPAAGLHGVERRRASGELDRAGLAPSLNALRKDLGRRTARMPGVLLEDKVAAVALHYRQAPEREPDVRAMMEMALKVMGDGWVLQHGKMVVELRPASANKGTALEAFLTEPPFAGRRPVAIGDDVTDEEMFRVVNACGGLSVRICETEAPTLARARLASPQALRDLVAELGA”, the “soluble on expression in E. coli” value is recorded as “not soluble”. To “FAKLVRPPVQIYGIEGRYATALYSAASKQNKLEQVEKELLRVGQILKEPKMAASLLNPYVKRSVKVKSLSDMTAKEKFSPLTSNLINLLAENGRLTNTPAVISAFSTMMSVHRGEVPCTVTTASALDETTLTELKTVLKSFLSKGQVLKLEVKIDPSIMGGMIVRIGEKYVDMSAKTKIQKLSRAMREIL” belongs “soluble”. Turning to “FESGLDLSDAEPDAGEATAYASKDLEEQLRSVSSVDELMTVLYPEYWKMYKCQLRKGGWQHNREQANLNSRTEETIKFAAAHYNTEILKSIDNEWRKTQCMPREVCIDVGKEFGVATNTFFKPPCVSVYRCGGCCNSEGLQCMNTSTSYLSKTLFEITVPLSQGPKPVTISFANHTSCRCMSKLDVYRQVHSIIRRSLPATLPQCQAANKTCPTNYMWNNHICRCLAQEDFMFSSDAGDDSTDGFHDICGPNKELDEETCQCVCRAGLRPASCGPHKELDRNSCQCVCKNKLFPSQCGANREFDENTCQCVCKRTCPRNQPLNPGKCACECTESPQKCLLKGKKFHHQTCSCYRRPCTNRQKACEPGFSYSEEVCRCVPSYWKRPQMS”, the “soluble on expression in E. coli” value is given as “not soluble”.

In the case of “FKYIQKIAKTEIKREEVPDVKDIISAKKIKIISGIKEVLESGKYADCEKMASDLLEDADPQEVLSAVLKYALKDELS”, the “soluble on expression in E. coli” value is “not soluble”. With “FLDGIDKAQEEHEKYHSNWRAMASDFNLPPVVAKEIVASCDKCQLKGEAMHGQVDCSPGIWQLDCTHLEGKVILVAVHVASGYIEAEVIPAETGQETAYFLLKLAGRWPVKTVHTDNGSNFTSTTVKAACDWAGIKQEDGIPYNPQSQGVIESMNKELKKIIGQVRDQAEHLKTAVQMAVFIHNKKRKGGIGGYSAGERIVDIIATDIQTKELQKQITKIQNFRVYYRDSRDPVWKGPAKLLWKGEGAVVIQDNSDIKVVPRRKAKIIRDYGKQMAGDDCVASRQDED”, the “soluble on expression in E. coli” value is “soluble”.

As to “FLNTISTKDFKQKMADKTTGFVYVGRPTCEDCQAFQPILKKELEKRQPDQKMAYYNTDKASEKSRDDMIALLKKMDIDSVPTMVYLKDGKVASTYAATDEPAKLTNWMNKVSGEVSE”, the “soluble on expression in E. coli” value is listed as “soluble”. To “FPDPSFIIDAEGRFLDCLTDPETMLTVDDTDTLVGQTLHEFFPHDTADSLLAAVRAALRTGSFQSVEYKLQVPSDKRWFEARVAPLESRAYDPDTVIFVARDI” belongs “not soluble”. Regarding “FRVERSQPASQPLTYESGPDEVRAWLEAKAFSPRIVENLGILTGPQLFSLNKEELKKVCGEEGVRVYSQLTMQKAFLEKQQSGSEL”, the “soluble on expression in E. coli” value is “soluble”. As to “FRYDNTTPKTLRHVALLLEQGIETNDFYSGLHRRELKQTRLEGYILQHFSIIDGCVGVMKLTSELLAEYDVTANESAAFVNSFSDVE”, the “soluble on expression in E. coli” value was “soluble”. As to “FWGVWASEPPHPVLHASHDAAGWRLRGTKAWCSGASMCTHALVTARVDEQPRLFAVDLREPGVTAGRGGWRNPGMAATDTESVTFDGVPARPVGAPDE”, the “soluble on expression in E. coli” value is on record as “not soluble”. Turning to “GAGNYQLAVSTLAKVWKQLHIPDVYDVGAMYFIKTFLHFGVSLLSAGHAWTNPQSFLDNAPLRQTLGKMMPFDGIEPSIASGALQALALTASCYTTGMSVTFFQGEESLGEWTRYQRLGVRERIGLDHLMATAAIPLIFPSVRIGEKFYCDGAVRQLSPLSPALH”, the “soluble on expression in E. coli” value is on record as “not soluble”. The entry for “GAHMVTSNVVLVSGEGERFTVDKKIAERSLLLKNYLNDMGDDDDEDDDEIVMPVPNVRSSVLQKVIEWAEHHRDSNFPDEDDDDSRKSAPVDSWDREFLKVDQEMLYEIILAANYLNIKPLLDAGCKVVAEMIRGRSPEEIRRTFNIVNDFTPEEEAAIRRENEWAEDR” is “soluble”. To “GALPSHNKASFTDEEDEFILDVVRKNPTRRTTHTLYDEISHYVPNHTGNSIRHRFRVYLSKRLEYVYEVDKFGKLVRDDDGNLIKTKVLPPSIKRKFSADEDYTLAIAVKKQFYRDLFQIDPDTGRSLITDEDTPTAIARRNMTMDPNHVPGSEPNFAAYRTQSRRGPIAREFFKHFAEEHAAHTENAWRDRFRKFLLAYGIDDYISYYEAEKAQNREPEPMKNLTNRPKRPGVPTPGNYNSAAKR” belongs “soluble”; to “GAMDPMICLGLEGTAEKTGVGIVTSDGEVLFNKTIMYKPPKQGINPREAADHHAETFPKLIKEAFEVVDKNEIDLIAFSQGPGLGPSLRVTATVARTLSLTLKKPIIGVNHCIAHIEIGKLTTEAEDPLTLYVSGGNTQVIAYVSKKYRVFGETLDIAVGNCLDQFARYVNLPHPGGPYIEELARKGKKLVDLPYTVKGMDIAFSGLLTAAMRAYDAGERLEDICYSLQEYAFSMLTEITERALAHTNKGEVMLVGGVAANNRLREMLKAMCEGQNVDFYVPPKEFCGDNGAMIAWLGLLMHKNGRWMSLDETKIIPNYRTDMVEVNWIKEIKGKKRKIPEHLIGKGAEADIKRDSYLDFDVIIKERVKKGYRDERLDENIRKSRTAREARYLALVKDFGIPAPYIFDVDLDNKRIMMSYINGKLAKDVIEDNLDIAYKIGEIVGKLHKNDVIHNDLTTSNFIFDKDLYIIDFGLGKISNLDEDKAVDLIVFKKAVLSTHHEKFDEIWERFLEGYKSVYDRWEIILELMKDVERRARYVE”, “soluble”; to “GAMEAIYAYEAQGDDEISIDPGDIITVIRGDDGSGWTYGECDGLKGLFPTSYCK”, “soluble”. To “GAMGMNGIDDLLNINDRIKQVQNERNELASKLQNLKQSLASNDTGGGSGGGSDSSDLLQREAILANELNILDNLKTFLNLIKEVKTNLNILELENCYYSLQSLRKKMRNNAAYLKQSFNFQQSISTYVDTLHLELVSTLYKILTNGFWKITENSIQFTPTVEWGKDKVHIEYDTFMDFVAQQYFPKGSLDNQAWFILDMTSADSQEQVRAKLNTIMKEYMNLSRIVSMIKNSIFISGKEISYENEKNILVFSKSSSHGQHCVSTVLTSFEAVCDFMLDGLAFRDRKTLSYELGPLFNTEFTKFVKNNASIILESLDSPLKNLVSVINNKLTRLVAKSEVTNWTHSGKEIQDLLMN” belongs “soluble”. Take “GASKAFYSAGDKLFQPGDDAVASMQTYSVAQFLQPFTLNPAKASSDYLGKWVKVRGVIVDIRRKSGIAGSYYFIVTMRDEQNKTDKRLTFNFGSHNSADVEALSNGSVATIVGQVHQVQDSTIPTLQNPKVVK”: the “soluble on expression in E. coli” value was “soluble”. Turning to “GAVGLTIRSNITYSKNEIVDRDEENNYYWYKMQKGHRVNQARGLISLGLFKDYDDIRNSPVQDFDGYKVMPGDIKYKDVNGDGKIDGNDQVAIGATTKPNLIYGFGIAANWKGLDVNLHFQGAGKSTYFIDGSTVHMFKLGDGWGNVLSEMANSNRWISADISGDPATENPNAEYPRLSYGPNSNNYQQSTYWLRNGSYLRLKTVEVGYTLPTQLVNKVHFNTVRIFFVGTNLLTWSAFKLWDPEMGSTDGKRYPLSKNLSLGISVNL”, the “soluble on expression in E. coli” value is on record as “not soluble”. To “GDFSWNSSLTYTMNRNKVKRLASGATNPITGEIIDMPELRMAVLGADGYGPRVILREGGTMGDLYVDKGLRTDGNGNIWVDSQTGKVGVQDYAEPKKIGTMNPDFNMGFSNTFSYKGINLGVVLTARVGGLCVSNTQGILDYYGVSKATADARDAGGVWINNGFVDAKSYYQTIGGSTGGLGQYYTYSATNIRLSELNLSYTLPRKWFNNKVGITAGIVGKNLWMIYCKAPFDPEMTPSTTSNFYQGVDYFMQPSTRNIGFNVKFQF” belongs “not soluble”. The entry for “GEFAQECQNLEVERQRRLERIKQKQSQLQELILQQIAFKNLVQRNRHAEQQASRPPPPNSVIHLPFIIVNTSKKTVIDCSISNDKFEYLFNFDNTFEIHDDIEVLKRMGMACGLESGSCSAEDLKMARSLVPKALEPYVTEMAQGTVGGVFITTA” is “soluble”.

On to “GEIYDEHDEVEAVQTLDNNTWLVLPNVKAAFFFNKWIKRDLVKSKNMTIQRYLASFENDGLNTQNKLETPWFIAEAIVDSENPEQIRYEIRKKSDVVD”, for which the “soluble on expression in E. coli” value was “soluble”.

On to “GELFIKELLWMLRHQKDIFNNLARQFQKEVLCPNKCGVMSQTLIWCLKCEKQLHICRKSLDCGERHIEVHRSEDLVLDCLLSWHRASKGLTDYSFYRVWENSSETLIAKGKEPYLTKSMVGPEDAGNYRCVLDTINQGHATVIRYDVTVLPPKHSEENQPP”, for which the “soluble on expression in E. coli” value is listed as “not soluble”. With “GERLTIEDGLYLYETSDLLGVAQLANKVNSEKNGDHVYFIENMYINPTNVCEANCSFCGFKRKPGQEGAYTMDSETLLRYVEERWNDNIREFHIVGGHNTDVPFDYYLDTIRTLKKNFPQVTVKAYTGAEIEFFSRLAGISMKEVLEELIKAGLDTLPGGGAEILTERYRAKMSPDKASTDQWLEAHEIAHGLGLKTHATMLYGSIESNEERLIHMDRVRQLQDKTNGYMVFIPLAMQPRSVKAGLKRRTSAFDDMRTIAISRLMLDNIDHIKAYWINIGVQLTQMALTFGSDDIHGTLIEERISHSVGALTSQGITRDELIHLIKSANKTPVER”, the “soluble on expression in E. coli” value is reported as “not soluble”.
